According to the Human Domainome abundance scans (Beltran et al. 2025):

B1: Mineralocorticoid receptor, residues 600 to 675; numbered along this chain, P08235 (parent)
chain: SKICLVCGDEASGCHYGVVTCGSCKVFFKRAVEGQHNYLCAGRNDCIIDKIRRKNCPACRLQKCLQAGMNLGARKS
B2: Membrane-associated guanylate kinase, WW and PDZ domain-containing protein 1, residues 352 to 401; numbered along this chain, Q96QZ7 (parent)
chain: TEELDSELELPAGWEKIEDPVYGIYYVDHINRKTQYENPVLEAKRKKQLE

Variants of: B1
Test: abundance fitness (aPCA) (normalised: wild type 0, dead -1); higher = more abundant; growth selection in yeast, the domain comes from the species named
Details: Homo sapiens

Abundance fitness, by site and new letter:
S1: K -0.123, W -0.144, H 0.002, V 0.018, F -0.048, P -0.13, Y 0, A -0.136, D -0.406, L -0.099, M -0.06, I -0.035, G -0.087, R -0.099
K2: E -0.072, R -0.083, S -0.161, G -0.163, L -0.099, F -0.267, I -0.041, H -0.109, W -0.246, Y -0.085, D -0.062, V -0.142, M -0.075, T -0.049, A -0.066, N 0.002, Q 0.118
I3: R -0.225, C -0.172, Q -0.152, K -0.196, T -0.164, D -0.062, M -0.192, N -0.022, F -0.04, A -0.157, H -0.11, L -0.239, G -0.162, E -0.146, P -0.453, S -0.128

Variants of: B2
Test: as above
Details: Homo sapiens

Abundance fitness of substitutions, site by site:
K44: M -0.064, W -0.237, D -0.106, A -0.079, G -0.068, E 0.019, L -0.061, C -0.03, R -0.057, Q -0.086, P -0.27, I -0.438, T -0.2, V -0.286, S -0.106, Y -0.041, F -0.186, H -0.196
K47: D -0.154, F -0.239, Y -0.207, P -0.121, M -0.102, H -0.172, Q 0.013, E -0.25, G -0.169, R -0.163, S 0.016, L -0.008, N -0.318, A -0.075, T -0.077, W -0.414, C -0.232
K46: L -0.133, A -0.063, P -0.044, V -0.065, W -0.331, N -0.41, T -0.333, Q -0.026, H 0.173, S -0.093, G -0.089, D 0.012, R -0.094, F -0.27, E -0.256, C -0.103, Y -0.169, M -0.328
L49: P -0.049, M 0.154, I -0.232, E 0.132, T -0.002, A -0.003, F -0.328, V -0.138, H -0.073, W -0.239, N -0.222, Y -0.048, K -0.002
E50: I -0.273, R -0.841, K -0.264, V -0.332, T -0.174, W 0.058, D 0.006, C 0.327, Q -0.438, H -0.699, S -0.321, A 0.032, L -0.223
R45: Y -0.266, V -0.162, M -0.159, D -0.171, C -0.241, W -0.352, E 0.073, K 0.02, S -0.067, F -0.248, Q -0.032, H -0.564, L -0.302, G -0.113, A -0.193, P -0.056, N -0.363, T 0.048
A43: W -0.231, Y -0.33, T 0.045, V -0.131
Q48: E 0.262, G -0.221, M 0.001, S -0.035, T -0.17, F -0.339, V -0.115, A -0.045, C -0.134, I 0.188, N 0.107, R -0.227, K -0.035, H -0.1, P -0.528, D 0.017, Y -0.152, W -0.26, L -0.279
